Assay results as given in PMC5327383, “Pneumococcal galactose catabolism is controlled by multiple regulators acting on pyruvate formate lyase” (Scientific Reports, 2017).
pKd: −log10 of the molar value. Several values for one entry are separate records, joined by “and”; a condition that tells them apart may be missing. Identical values can stand only once.

Legend:
Assay in all cases: EMSA
[1] = target: CcpA (Streptococcus pneumoniae D39) (UniProt A0A0H2ZQ65); settings: 5X FY buffer: 20 mM Tris-HCl pH 7.5, 30 mM KCl, 1 mM DTT, 1 mM EDTA, 10% glycerol; room temperature 20 min, 20 ul, ~30 ng DNA, 0.1-0.5 uM protein; 8%
[2] = target: T1, GlnR (Streptococcus pneumoniae D39) (UniProt A0A0H2ZRB1); settings: 5X FY buffer: 20 mM Tris-HCl pH 7.5, 30 mM KCl, 1 mM DTT, 1 mM EDTA, 10% glycerol; room temperature 20 min, 20 ul, ~30 ng DNA, 0.1-0.5 uM protein; 8%
T1 sequence: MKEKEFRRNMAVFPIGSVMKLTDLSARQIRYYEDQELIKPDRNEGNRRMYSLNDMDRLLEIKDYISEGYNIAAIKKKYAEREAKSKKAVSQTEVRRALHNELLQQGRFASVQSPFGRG

[3] = target: T2, GntR (Streptococcus pneumoniae D39) (UniProt A0A0H2ZQS8); settings: 5X FY buffer: 20 mM Tris-HCl pH 7.5, 30 mM KCl, 1 mM DTT, 1 mM EDTA, 10% glycerol; room temperature 20 min, 20 ul, ~30 ng DNA, 0.1-0.5 uM protein; 8%
T2 sequence: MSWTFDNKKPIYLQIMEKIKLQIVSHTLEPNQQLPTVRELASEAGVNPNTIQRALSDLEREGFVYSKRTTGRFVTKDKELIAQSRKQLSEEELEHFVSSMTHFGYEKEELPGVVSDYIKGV

[4] = test system: CcpA (Streptococcus pneumoniae D39); settings: 5X FY buffer: 20 mM Tris-HCl pH 7.5, 30 mM KCl, 1 mM DTT, 1 mM EDTA, 10% glycerol, room temperature 20 min, 20 ul, ~30 ng DNA, 0.1-0.5 uM protein, 8%
[5] = test system: GlnR (Streptococcus pneumoniae D39); settings: 5X FY buffer: 20 mM Tris-HCl pH 7.5, 30 mM KCl, 1 mM DTT, 1 mM EDTA, 10% glycerol, room temperature 20 min, 20 ul, ~30 ng DNA, 0.1-0.5 uM protein, 8%

Substance	binding [1]	binding [2]	binding [3]	further results
AAGTGCAAAATCCCTATTTTTACACTTTCTTTTCTAAAACAGTCTATATTTTATTTCAAACTGTATTATATTTTTGAAAAAAATAAAGTCCTTTT (double strand) [PpflB(cre1-)]	no binding	no binding		
TAATCTGATGATAGATTGAAAATGAAATTGAAAAACAGATTGCTTTCTAAAAAATAGGCAAAAATCTTGTTTTTCCTTCAAGTCGTGATATAATAA (double strand) [PpflA(cre1-)]	binds more weakly	binds more weakly		
GTGAAAATTTCGTTTTCATATTTCTACTTATTCCATTCTATCACTAATTGTAAACACTTTCAAGTGTTTTTTGAAGATTGATTGAAAAAATTTCA (double strand) [PccpA]	binds	binds	no binding	
ATGACAGAAGAAATCAAAAATCTGCAGGCACAGGATTATGATGCCAGTCAAATTCAAGTTTTAGAGGGCTTAGAGGCTGTTCGTATGCGTCCAGG (double strand) [gyrB]	no binding	no binding		
PpflB				pKd ([4]; 10 mM sodium formate): 6.46; pKd ([4]; no formate): 5.90; pKd ([5]; 10 mM sodium formate): 6.10; pKd ([5]; no formate): 6.51
GTTACCTTCCTTGAAAACGTTTTATAGTTTTATTATATCACGACTTGAAGGAAAAACAAGATTTTTGCCTATTTTTTAGAAAGCAATCTGTTTTTC (double strand) [PpflA]	binds	binds	no binding	
CAGTTTGAAATAAAATATAGACTGTTTTAGAAAAGAAAGTGTAAAAATAGGGATTTTGCACTTGTTGAAATCGGTTACTTTATGGTATACTTGTC (double strand) [PpflB]			binds	pKd [1]: 5.90 and 6.46; pKd [2]: 6.51
